The source of these data is article PMC8054679.

Like-named read-outs stand apart in the source and are kept apart here.

Common to all, as to assay: split reporter
The target of experiment [1] is SmBiT-CHIP.
Experiment [2] addresses SmBiT-CHIP. This is another data set of the same source.
The target in another experiment is SmBiT-CHIP K30A.
The target in a further experiment is SmBiT-CHIP-FLAG.
SmBiT-CHIP-FLAG, sequence (Q9UNE7 whole entry): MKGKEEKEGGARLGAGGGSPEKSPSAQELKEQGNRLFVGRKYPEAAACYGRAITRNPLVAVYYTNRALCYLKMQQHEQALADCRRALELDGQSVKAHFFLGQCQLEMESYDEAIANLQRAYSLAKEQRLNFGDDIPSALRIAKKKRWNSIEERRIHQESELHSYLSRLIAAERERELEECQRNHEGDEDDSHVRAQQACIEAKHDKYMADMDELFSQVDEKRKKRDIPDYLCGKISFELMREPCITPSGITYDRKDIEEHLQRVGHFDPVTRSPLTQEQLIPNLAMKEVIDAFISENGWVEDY

SmBiT-CHIP, sequence (Q9UNE7 whole entry): as above

For GGSGIEEVD [LgBiT-IEEVD], the figures for the fold increase in luminescence over the negative control with SmBiT-CHIP [1], with SmBiT-CHIP [2] and with SmBiT-CHIP K30A were 160 to 180 fold, 180 fold and 97 fold, respectively.

For the molecule GGSGLWWPD [LgBiT-LWWPD], the fold increase in luminescence over the negative control with SmBiT-CHIP [2] was determined as 300 fold.

For the molecule GGSGIEEVD [myc-LgBiT-IEEVD], in the experiment with SmBiT-CHIP-FLAG, the luminescence with dox was found to be 47300 RLU.
